B1: E3 ubiquitin-protein ligase RNF146 (Homo sapiens), Q9NTX7 (parent)
chain: MMAGCGEIDHSINMLPTNRKANESCSNTAPSLTVPECAICLQTCVHPVSLPCKHVFCYLCVKGASWLGKRCALCRQEIPEDFLDKPTLLSPEELKAASRGNGEYAWYYEGRNGWWQYDERTSRELEDAFSKGKKNTEMLIAGFLYVADLENMVQYRRNEHGRRRKIKRDIIDIPKKGVAGLRLDCDANTVNLARESSADGADSVSAQSGASVQPLVSSVRPLTSVDGQLTSPATPSPDASTSLEDSFAHLQLSGDNTAERSHRGEGEEDHESPSSGRVPAPDTSIEETESDASSDSEDVSAVVAQHSLTQQRLLVSNANQTVPDRSDRSGTDRSVAGGGTVSVSVRSRRPDGQCTVTEV

Variants of: B1
Conditions: with parp1_human PARP1, P09874
parp1_human PARP1, P09874, sequence (P09874 whole entry): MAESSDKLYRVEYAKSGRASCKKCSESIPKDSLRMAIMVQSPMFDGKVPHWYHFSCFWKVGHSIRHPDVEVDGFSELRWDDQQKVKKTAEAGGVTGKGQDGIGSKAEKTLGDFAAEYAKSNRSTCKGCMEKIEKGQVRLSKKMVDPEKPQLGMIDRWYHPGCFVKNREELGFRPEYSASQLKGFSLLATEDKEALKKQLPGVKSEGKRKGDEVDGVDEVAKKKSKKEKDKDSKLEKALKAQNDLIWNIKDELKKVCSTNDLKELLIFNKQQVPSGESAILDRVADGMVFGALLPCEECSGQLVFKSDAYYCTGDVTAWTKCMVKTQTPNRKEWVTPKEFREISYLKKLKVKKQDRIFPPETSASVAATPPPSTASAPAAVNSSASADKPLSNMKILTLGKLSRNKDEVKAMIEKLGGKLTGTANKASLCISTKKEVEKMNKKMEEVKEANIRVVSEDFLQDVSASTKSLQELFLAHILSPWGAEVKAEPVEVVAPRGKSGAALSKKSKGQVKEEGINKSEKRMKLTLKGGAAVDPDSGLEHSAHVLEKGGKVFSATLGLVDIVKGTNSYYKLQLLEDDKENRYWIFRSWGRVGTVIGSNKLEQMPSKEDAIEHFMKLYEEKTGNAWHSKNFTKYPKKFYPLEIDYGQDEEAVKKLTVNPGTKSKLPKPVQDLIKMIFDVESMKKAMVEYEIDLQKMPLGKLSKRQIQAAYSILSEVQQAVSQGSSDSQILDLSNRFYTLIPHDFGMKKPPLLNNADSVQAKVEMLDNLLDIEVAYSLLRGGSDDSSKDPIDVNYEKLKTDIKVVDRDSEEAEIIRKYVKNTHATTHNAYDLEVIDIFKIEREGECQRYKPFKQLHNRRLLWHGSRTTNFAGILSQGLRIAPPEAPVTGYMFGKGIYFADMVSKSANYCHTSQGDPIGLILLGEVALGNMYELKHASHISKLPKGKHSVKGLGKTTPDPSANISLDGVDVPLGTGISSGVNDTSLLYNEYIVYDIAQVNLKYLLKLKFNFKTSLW

Variant	effect of a mutation on the interaction
H54A	with no effect

— IntAct's records for PubMed 21799911
